Bounds are passed on as bounds.

The results in this text go back to patent publication US6258556.

This experiment concerns the target human µ opiate receptor (human).

“(D-ala^2, N-methyl-phe^4, glyol^5) enkephalin (peptide)”: the adenyl cyclase activity (cAMP radioimmunoassay) in forskolin-stimulated COS cells is more than 30%.
